Test results from patent publication US20220107306A1.

How the values were obtained:
[1] = target: Recombinant human HER2 protein (E27-11G-10/Signal Chem) (human) (UniProt P04626); assay: sandwich ELISA: HER2 captured by antibody 6C2, detected with 0.67 nM antibody-coated PID-T particles, after lyophilizing
[2] = target: Recombinant human HER2 protein (E27-11G-10/Signal Chem) (human) (UniProt P04626); assay: sandwich ELISA: HER2 captured by antibody 6C2, detected with 0.67 nM antibody-coated PID-T particles, before lyophilizing
[3] = tested on: rabbit IgG (anti-PD-L1 rabbit monoclonal antibody clone SP142) (Oryctolagus cuniculus); settings: 5' SH (reduced disulfide), coupled to maleimide-PEG nanoparticle; secondary staining of SP142 rabbit mAb on NCI-H446 section; 0.05 nM aptamer-nanoparticle, PBS 1% BSA, RT 3 h
[4] = target: Recombinant human PDL1 protein (BioVision/7429-50) (human) (UniProt Q9NZQ7); assay: sandwich ELISA: PDL1 captured by antibody 28-8, detected with antibody-coated PID particles, after lyophilizing
Chain of UniProt Q9NZQ7 (Q9NZQ7 19-238 limits assumed): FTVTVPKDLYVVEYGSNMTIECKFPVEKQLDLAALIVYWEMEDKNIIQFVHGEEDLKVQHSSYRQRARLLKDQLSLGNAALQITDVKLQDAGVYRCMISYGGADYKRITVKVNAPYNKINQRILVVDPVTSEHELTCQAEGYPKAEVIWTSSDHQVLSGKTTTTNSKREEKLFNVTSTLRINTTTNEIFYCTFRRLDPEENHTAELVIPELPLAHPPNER

[5] = target: Recombinant human PDL1 protein (BioVision/7429-50) (human) (UniProt Q9NZQ7); assay: sandwich ELISA: PDL1 captured by antibody 28-8, detected with antibody-coated PID particles, before lyophilizing

Fluorescence intensity (PFU), after lyophilizing [1] [PFU] | Fluorescence intensity (PFU), before lyophilizing [2] [PFU] | Fluorescence intensity (PFU), after lyophilizing [4] [PFU] | Fluorescence intensity (PFU), before lyophilizing [5] [PFU] | Molecule | binding (bright spots per cell) [3]
15000 | 33000 |  |  | anti-HER2-whole antibody (Abcam, product code EP1045Y), bound to the surface of PID-T | 
49000 | 51000 |  |  | anti-HER2-VHH antibody (SH group-containing VHH antibody that recognizes HER2 antigen), bound to the surface of PID-T (VHH, C-terminal cysteine of the linker reduced with DTT to a free SH group and coupled to the maleimide group of TAMRA-encapsulating silica nanoparticles (PID-T)) VHH: EVQLVESGGGLVQAGGSLRLSCAASGITFSINTMGWYRQAPGKQRELVALISSIGDTYYADSVKGRFTISRDNAKNTVYLQMNSLKPEDTAVYYCKRFRTAQGTDYWGQGTQVTVSS | 

The next lines start with the molecule.

Molecule | Fluorescence intensity (PFU), after lyophilizing [1] [PFU] | Fluorescence intensity (PFU), before lyophilizing [2] [PFU] | Fluorescence intensity (PFU), after lyophilizing [4] [PFU] | Fluorescence intensity (PFU), before lyophilizing [5] [PFU] | binding (bright spots per cell) [3]
anti-HER2-Fab antibody prepared from the anti-HER2-whole antibody (Abcam EP1045Y), bound to the surface of PID-T | 18000 | 41000 |  |  | 
GGGAGAAUUCCGACCAGAAGUUCGAUACGCCGUGGGGUGACGUUGGCUACCCUUUCCUCUCUCCUCCUUCUUCU [rabbit IgG RNA aptamer (74 mer)] |  |  |  |  | 605
anti-PDL1-recombinant antibody (clone E1L3N/Cell Signaling Technology), bound to the surface of PID-P |  |  | 5500 | 17000 | 
